# T1: Rrp6 EARless, catalytically dead (Saccharomyces cerevisiae, UniProt Q12149 128-733, D238N;del517-617)
# T1 sequence: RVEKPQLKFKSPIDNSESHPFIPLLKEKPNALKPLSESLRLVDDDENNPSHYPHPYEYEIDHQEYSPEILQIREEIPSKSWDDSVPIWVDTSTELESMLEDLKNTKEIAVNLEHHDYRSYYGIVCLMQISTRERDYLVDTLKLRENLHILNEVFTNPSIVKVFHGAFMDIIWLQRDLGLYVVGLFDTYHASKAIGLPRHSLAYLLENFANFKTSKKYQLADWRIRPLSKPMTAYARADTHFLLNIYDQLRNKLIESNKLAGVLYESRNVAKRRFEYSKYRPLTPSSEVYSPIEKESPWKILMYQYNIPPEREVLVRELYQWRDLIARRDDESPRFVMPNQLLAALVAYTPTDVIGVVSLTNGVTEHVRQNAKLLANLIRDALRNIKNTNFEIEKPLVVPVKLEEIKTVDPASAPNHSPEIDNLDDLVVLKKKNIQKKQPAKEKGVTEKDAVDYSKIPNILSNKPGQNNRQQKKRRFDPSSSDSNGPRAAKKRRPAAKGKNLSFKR
# T2: Rrp6 Lassoless, catalytically dead (Saccharomyces cerevisiae, UniProt Q12149 128-634, D238N)
# T2 sequence: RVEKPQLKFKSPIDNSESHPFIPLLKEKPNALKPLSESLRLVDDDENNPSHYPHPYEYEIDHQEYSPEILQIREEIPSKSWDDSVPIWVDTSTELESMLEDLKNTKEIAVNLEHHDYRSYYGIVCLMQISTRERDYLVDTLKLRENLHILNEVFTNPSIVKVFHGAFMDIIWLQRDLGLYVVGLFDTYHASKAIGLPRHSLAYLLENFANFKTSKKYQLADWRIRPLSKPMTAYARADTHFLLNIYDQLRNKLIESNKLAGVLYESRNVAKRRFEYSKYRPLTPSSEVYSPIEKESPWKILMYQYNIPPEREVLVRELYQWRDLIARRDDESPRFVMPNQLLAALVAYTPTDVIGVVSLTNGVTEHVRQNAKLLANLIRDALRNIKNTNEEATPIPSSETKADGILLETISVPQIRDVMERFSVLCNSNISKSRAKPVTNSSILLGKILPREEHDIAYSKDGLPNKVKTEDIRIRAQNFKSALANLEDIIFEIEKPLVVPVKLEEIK
# T3: Rrp6 Lasso (CTD intact), catalytically dead (Saccharomyces cerevisiae, UniProt Q12149 128-733, D238N)
# T3 sequence: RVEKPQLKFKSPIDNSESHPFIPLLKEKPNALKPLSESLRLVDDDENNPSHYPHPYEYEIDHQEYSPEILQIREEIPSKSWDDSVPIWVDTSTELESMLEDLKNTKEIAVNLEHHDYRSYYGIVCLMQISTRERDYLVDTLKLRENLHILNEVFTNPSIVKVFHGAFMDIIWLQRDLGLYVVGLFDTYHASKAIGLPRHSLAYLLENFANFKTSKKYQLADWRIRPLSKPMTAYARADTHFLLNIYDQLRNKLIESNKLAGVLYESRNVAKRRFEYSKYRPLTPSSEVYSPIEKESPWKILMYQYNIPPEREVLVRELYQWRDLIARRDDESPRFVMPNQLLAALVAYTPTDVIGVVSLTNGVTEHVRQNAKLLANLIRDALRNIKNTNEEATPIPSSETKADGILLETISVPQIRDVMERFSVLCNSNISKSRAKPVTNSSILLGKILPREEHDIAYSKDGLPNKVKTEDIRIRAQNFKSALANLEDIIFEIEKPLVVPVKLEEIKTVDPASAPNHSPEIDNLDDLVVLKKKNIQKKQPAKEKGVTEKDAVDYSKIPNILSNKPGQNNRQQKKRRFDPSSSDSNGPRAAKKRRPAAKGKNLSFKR
# Key:
# Assay in all cases: fluorescence polarization
# [1] = target: Exo11(44exo-/6exo-) Lassoless (Saccharomyces cerevisiae, UniProt Q12149;Q08162;P46948;Q12277;P25359;Q05636;P53256;P48240;P38792;Q08285;P53859 …, D238N;D551N)
# [2] = target: T1, Rrp6 EARless, catalytically dead
# [3] = target: T2, Rrp6 Lassoless, catalytically dead
# [4] = target: T3, Rrp6 Lasso (CTD intact), catalytically …
# [5] = target: Exo10(6exo-) Lassoless (Saccharomyces cerevisiae, UniProt Q12149;P46948;Q12277;P25359;Q05636;P53256;P48240;P38792;Q08285;P53859 …, D238N)
# [6] = target: Exo10(6exo-) Partial lasso (Saccharomyces cerevisiae, UniProt Q12149;P46948;Q12277;P25359;Q05636;P53256;P48240;P38792;Q08285;P53859 …, D238N)
# [7] = target: Exo10(6exo-) Lasso (Saccharomyces cerevisiae, UniProt Q12149;P46948;Q12277;P25359;Q05636;P53256;P48240;P38792;Q08285;P53859 …, D238N)
Binder,binding signal [1],binding signal [2],binding signal [3],binding signal [4],binding signal [5],binding signal [6],binding result [7]
AAAAAAAAAAAAAAAAAAAAAAAAAAAAAAAAAAAAA (ssRNA) [37 nt polyA RNA],6 fold weaker than P9,6 fold tighter than lassoless (P4),4 fold weaker than lasso-containing (P3),4 fold tighter than lassoless (P4),> 15 fold weaker than P6,> 15 fold weaker than P6,–
AUUAUUUAUUUAUUAUUAUUUAUU (ssRNA) [AU-rich RNA 24 nt],–,–,–,–,–,–,binds
